Data taken from IntAct's records for PubMed 15665853.

B1: Spindle assembly abnormal protein 5 (Caenorhabditis elegans), Q20010 (parent)
chain: MNNYDDLPCSIYFKKPTVQEFVDQPRVFEDSEVPAFQEVLQLPQERTKPPVPSTQPIVAAVEVAKKKSCLSAPKPRKEPPSHPALRQKTVAFGKTVNVSQTVEGTSRNSKKVLASTMSAQNTTTTEEQAAENWRDAMKTELQTIRTEIQEETARRQEELNAQNLVKMQELMSNFFQKITIPKQQAIEPVEKDKENFHESPRQSRQQKPASKIASAREVIKRDGVIPPEALTIIEQRLRSDPMFRQQIDNVLADAECDANRAAYSPPPPMSEVRYGSGVNPALMRETLTVERSIRYDNGLASIDSRQWTNERRDNRAPDSYRTYEPDQPCHSLYQKGQSISYYPSEAAGKTTARNNRTGYYVEDSSDHEEDVVVNKRGQNYHEQAVPETPAERERRIREKYARRK
partner: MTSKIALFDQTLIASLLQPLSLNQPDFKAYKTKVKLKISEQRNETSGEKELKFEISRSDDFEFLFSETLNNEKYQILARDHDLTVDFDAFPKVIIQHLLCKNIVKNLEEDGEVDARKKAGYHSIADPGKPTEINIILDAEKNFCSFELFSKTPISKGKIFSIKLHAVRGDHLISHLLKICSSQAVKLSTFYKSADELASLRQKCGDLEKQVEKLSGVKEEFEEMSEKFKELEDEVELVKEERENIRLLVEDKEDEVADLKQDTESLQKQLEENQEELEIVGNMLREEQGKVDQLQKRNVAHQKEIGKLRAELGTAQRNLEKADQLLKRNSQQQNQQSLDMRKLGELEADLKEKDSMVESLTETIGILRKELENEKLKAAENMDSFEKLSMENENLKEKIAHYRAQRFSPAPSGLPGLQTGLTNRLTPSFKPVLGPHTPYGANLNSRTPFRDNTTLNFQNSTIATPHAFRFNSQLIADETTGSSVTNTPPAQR

Variants of: B1
Settings: with sas6_caeel sas-6, O62479
R397C was tested, and the “effect of a mutation on the interaction” value was “decreasing interaction”.
